Assay results published in IntAct's records for PubMed 27478939.

B1: Purine nucleoside phosphorylase LACC1 (Homo sapiens), Q8IV20 (parent)
chain: MAEAVLIDLFGLKLNSQKNCHQTLLKTLNAVQYHHAAKAKFLCIMCCSNISYERDGEQDNCEIETSNGLSALLEEFEIVSCPSMAATLYTIKQKIDEKNLSSIKVIVPRHRKTLMKAFIDQLFTDVYNFEFEDLQVTFRGGLFKQSIEINVITAQELRGIQNEIETFLRSLPALRGKLTIITSSLIPDIFIHGFTTRTGGISYIPTLSSFNLFSSSKRRDPKVVVQENLRRLANAAGFNVEKFYRIKTHHSNDIWIMGRKEPDSYDGITTNQRGVTIAALGADCIPIVFADPVKKACGVAHAGWKGTLLGVAMATVNAMIAEYGCSLEDIVVVLGPSVGPCCFTLPRESAEAFHNLHPACVQLFDSPNPCIDIRKATRILLEQGGILPQNIQDQNQDLNLCTSCHPDKFFSHVRDGLNFGTQIGFISIKE

Variants of: B1
Settings: with fas_human FASN

Variant | effect of a mutation on the interaction
MAEAVLIDLFGLKLNSQKNCHQTLLKTLNAVQYHHAAKAKFLCIMCCSNISYERDGEQDNCEIETSNGLSALLEEFEIVSCPSMAATLYTIKQKIDEKNLSSIKVIVPRHRKTLMKAFIDQLFTDVYNFEFEDLQVTFRGGLFKQSIEINVITAQELRGIQNEIETFLRSLPALRGKLTIITSSLIPDIFIHGFTTRTGGISYIPTLSSFNLFSSSKRRDPKVVVQENLRRLANAAGFNVEKFYRIKTHHSNDVWIMGRKEPDSYDGITTNQRGVTIAALGADCIPIVFADPVKKACGVAHAGWKGTLLGVAMATVNAMIAEYGCSLEDIVVVLGPSVGPCCFTLPRESAEAFHNLHPACVQLFDSPNPCIDIRKATRILLEQGGILPQNIQDQNQDLNLCTSCHPDKFFSHVRDGLNFGTQIGFISIKE [I254V] | with no effect
